In paper PMC2191977 (The Journal of Experimental Medicine, 1995):

Experiments:
Test in all cases: flow cytometry on cells
B7 LE/VD (L179V, E180D) = target: T1, B7 LE/VD (L179V, E180D) (mouse, UniProt Q00609 38-306, L179E180>VD)
T1 sequence (looked up): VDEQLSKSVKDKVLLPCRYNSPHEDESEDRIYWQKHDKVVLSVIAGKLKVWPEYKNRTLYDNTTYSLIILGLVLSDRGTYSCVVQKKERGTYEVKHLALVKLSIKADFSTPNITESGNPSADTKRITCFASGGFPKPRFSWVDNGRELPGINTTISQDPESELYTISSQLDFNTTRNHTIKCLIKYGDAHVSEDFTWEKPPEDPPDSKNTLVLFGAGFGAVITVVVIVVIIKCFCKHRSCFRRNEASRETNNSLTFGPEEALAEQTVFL

B7 QD/LE (Q194L, D195E) = target: T2, B7 QD/LE (Q194L, D195E) (mouse, UniProt Q00609 38-306, Q194D195>LE)
T2 sequence (looked up): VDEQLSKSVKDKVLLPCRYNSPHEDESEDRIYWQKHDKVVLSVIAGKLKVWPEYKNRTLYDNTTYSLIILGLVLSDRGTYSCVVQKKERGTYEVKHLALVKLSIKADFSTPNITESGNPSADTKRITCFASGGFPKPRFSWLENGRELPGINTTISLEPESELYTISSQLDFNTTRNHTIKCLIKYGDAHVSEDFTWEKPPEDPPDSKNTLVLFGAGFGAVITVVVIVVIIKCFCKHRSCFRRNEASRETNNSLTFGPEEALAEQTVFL

[1] = target: T3, B7 QDP/LEH (Q194L, D195E, P196H) (mouse, UniProt Q00609 38-306, Q194D195P196>LEH)
T3 sequence (looked up): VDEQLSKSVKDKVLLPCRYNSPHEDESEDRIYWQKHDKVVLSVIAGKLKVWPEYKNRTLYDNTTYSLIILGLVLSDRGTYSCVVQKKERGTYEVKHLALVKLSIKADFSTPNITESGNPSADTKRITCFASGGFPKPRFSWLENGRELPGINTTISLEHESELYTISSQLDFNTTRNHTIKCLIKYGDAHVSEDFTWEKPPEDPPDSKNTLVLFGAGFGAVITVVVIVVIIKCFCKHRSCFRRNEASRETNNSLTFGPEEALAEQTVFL

B7 Y201A = target: T4, B7 Y201A (mouse, UniProt Q00609 38-306, Y201A)
T4 sequence (looked up): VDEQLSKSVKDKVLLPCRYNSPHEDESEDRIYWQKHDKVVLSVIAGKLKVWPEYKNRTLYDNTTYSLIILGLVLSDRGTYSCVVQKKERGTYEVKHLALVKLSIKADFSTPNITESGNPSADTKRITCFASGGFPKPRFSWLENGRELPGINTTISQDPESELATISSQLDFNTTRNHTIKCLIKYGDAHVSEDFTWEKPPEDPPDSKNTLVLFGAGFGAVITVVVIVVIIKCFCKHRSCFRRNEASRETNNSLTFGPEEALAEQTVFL

B7 P172A = target: T5, B7 P172A (mouse, UniProt Q00609 38-306, P172A)
T5 sequence (looked up): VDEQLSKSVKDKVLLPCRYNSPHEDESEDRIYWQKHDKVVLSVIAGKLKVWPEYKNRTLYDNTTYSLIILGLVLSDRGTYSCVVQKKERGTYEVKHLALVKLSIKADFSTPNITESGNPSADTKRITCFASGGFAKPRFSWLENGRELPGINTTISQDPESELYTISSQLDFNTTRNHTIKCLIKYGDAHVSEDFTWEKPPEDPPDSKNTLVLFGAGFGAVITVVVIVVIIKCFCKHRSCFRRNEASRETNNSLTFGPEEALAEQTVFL

B7 R175S = target: T6, B7 R175S (mouse, UniProt Q00609 38-306, R175>S (CGC>AGC))
T6 sequence (looked up): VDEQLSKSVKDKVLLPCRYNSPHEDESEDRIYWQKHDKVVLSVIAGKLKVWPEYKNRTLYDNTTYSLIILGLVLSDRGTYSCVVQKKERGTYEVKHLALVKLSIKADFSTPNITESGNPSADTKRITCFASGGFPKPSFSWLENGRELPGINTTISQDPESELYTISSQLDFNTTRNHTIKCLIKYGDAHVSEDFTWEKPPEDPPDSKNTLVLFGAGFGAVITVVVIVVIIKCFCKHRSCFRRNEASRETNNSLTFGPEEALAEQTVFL

- % wild-type B7 binding (normalised to anti-B7 mAb 10.16A.1) (B7 LE/VD (L179V, E180D)): 40%
- MF (mean fluorescence, control subtracted) (B7 LE/VD (L179V, E180D)): 16 MF
- % wild-type B7 binding (normalised to anti-B7 mAb 10.16A.1) (B7 QD/LE (Q194L, D195E)): 11%
- MF (mean fluorescence, control subtracted) (B7 QD/LE (Q194L, D195E)): 3 MF
- % wild-type B7 binding (normalised to anti-B7 mAb 10.16A.1) [1]: 3%
- MF (mean fluorescence, control subtracted) [1]: 1 MF
- % wild-type B7 binding (normalised to anti-B7 mAb 10.16A.1) (B7 Y201A): 3%
- MF (mean fluorescence, control subtracted) (B7 Y201A): 1 MF
- % wild-type B7 binding (normalised to anti-B7 mAb 10.16A.1) (B7 P172A): 7%
- MF (mean fluorescence, control subtracted) (B7 P172A): 2 MF
- % wild-type B7 binding (normalised to anti-B7 mAb 10.16A.1) (B7 R175S): 26%
- MF (mean fluorescence, control subtracted) (B7 R175S): 15 MF
B1: CD28Ig (Fc fusion, mouse, UniProt P31041 20-150, looked up)
chain: NKILVKQSPLLVVDSNEVSLSCRYSYNLLAKEFRASLYKGVNSDVEVCVGNGNFTYQPQFRSNAEFNCDGDFDNETVTFRLWNLHVNHTDIYFCKIEFMYPPPYLDNERSNGTIIHIKEKHLCHTQSSPKL
